Consider 2 molecules from paper PMC11098746 (2024).

Holding throughout (assay): AVEXIS screen signal:noise (double-corrected)
One test addresses T1, ADP334.
T1 chain: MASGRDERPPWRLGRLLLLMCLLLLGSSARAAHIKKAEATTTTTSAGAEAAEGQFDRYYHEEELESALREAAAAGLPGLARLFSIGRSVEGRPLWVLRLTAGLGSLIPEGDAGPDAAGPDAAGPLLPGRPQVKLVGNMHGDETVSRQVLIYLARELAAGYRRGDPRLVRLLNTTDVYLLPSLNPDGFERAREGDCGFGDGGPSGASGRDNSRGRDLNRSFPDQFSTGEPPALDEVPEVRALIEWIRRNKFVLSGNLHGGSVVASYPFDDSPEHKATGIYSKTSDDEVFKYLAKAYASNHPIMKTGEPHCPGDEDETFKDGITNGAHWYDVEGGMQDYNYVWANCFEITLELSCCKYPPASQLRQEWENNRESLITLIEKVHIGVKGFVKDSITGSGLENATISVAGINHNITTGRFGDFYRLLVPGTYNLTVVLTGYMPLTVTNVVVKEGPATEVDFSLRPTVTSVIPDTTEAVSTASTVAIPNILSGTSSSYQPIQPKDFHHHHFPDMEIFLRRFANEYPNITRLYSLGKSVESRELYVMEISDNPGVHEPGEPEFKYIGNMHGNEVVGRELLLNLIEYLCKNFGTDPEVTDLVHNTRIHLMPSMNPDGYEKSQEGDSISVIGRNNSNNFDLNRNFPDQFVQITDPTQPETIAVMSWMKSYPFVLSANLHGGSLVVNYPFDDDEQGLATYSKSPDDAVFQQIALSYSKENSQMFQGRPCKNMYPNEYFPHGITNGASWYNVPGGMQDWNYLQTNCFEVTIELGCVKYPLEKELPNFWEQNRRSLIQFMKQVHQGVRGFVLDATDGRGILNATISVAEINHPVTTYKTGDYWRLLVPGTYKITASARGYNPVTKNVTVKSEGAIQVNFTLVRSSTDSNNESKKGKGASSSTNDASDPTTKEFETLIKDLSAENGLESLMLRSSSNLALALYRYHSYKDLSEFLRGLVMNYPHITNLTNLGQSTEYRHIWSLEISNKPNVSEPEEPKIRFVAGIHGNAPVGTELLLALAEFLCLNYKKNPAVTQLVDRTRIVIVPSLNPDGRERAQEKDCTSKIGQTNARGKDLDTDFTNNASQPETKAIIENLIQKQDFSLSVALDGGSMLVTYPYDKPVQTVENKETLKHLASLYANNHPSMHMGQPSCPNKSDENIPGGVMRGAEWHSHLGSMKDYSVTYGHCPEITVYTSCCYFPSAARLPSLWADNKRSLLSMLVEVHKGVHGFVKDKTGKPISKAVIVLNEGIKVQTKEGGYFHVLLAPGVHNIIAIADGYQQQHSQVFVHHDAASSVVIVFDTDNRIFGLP

In another test the target is T2, ADP389.
T2 chain: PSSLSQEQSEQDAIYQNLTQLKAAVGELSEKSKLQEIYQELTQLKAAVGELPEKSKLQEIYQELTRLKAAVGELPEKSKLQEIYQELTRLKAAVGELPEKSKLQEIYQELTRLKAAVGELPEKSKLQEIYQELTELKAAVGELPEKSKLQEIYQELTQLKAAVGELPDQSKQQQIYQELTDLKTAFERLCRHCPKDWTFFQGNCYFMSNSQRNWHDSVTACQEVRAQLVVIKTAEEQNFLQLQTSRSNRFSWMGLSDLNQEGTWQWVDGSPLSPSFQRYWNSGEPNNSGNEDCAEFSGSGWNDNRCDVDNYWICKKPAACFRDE

For the next test, the target named is T3, ADP320.
T3 chain: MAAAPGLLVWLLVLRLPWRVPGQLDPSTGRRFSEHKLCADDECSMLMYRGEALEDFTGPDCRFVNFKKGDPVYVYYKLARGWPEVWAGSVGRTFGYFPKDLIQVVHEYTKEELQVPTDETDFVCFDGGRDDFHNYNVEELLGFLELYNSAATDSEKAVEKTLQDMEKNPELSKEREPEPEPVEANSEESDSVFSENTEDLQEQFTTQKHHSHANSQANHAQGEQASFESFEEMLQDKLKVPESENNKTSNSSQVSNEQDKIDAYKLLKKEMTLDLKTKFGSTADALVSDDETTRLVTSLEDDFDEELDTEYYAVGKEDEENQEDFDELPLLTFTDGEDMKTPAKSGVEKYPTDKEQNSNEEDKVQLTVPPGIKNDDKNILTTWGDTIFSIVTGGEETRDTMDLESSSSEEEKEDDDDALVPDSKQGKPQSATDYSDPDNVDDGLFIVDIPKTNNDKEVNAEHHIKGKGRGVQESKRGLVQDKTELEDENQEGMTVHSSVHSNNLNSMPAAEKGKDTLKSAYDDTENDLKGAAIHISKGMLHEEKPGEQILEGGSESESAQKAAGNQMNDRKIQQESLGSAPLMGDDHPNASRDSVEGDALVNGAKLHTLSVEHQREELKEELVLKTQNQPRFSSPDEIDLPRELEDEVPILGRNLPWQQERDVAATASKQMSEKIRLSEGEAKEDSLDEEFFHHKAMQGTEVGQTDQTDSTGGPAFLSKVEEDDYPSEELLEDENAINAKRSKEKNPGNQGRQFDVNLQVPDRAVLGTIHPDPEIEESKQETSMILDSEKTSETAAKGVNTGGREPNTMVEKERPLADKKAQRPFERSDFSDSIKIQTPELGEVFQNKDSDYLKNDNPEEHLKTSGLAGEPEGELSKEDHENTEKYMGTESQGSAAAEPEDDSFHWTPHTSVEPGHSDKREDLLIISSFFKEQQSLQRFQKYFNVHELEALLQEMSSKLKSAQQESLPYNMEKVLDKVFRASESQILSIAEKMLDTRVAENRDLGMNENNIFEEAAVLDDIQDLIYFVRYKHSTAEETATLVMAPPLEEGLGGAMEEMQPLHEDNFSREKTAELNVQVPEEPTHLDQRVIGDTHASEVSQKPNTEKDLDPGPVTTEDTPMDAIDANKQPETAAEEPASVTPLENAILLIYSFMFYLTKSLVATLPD

Another test deals with ADP326.
In the next test the target is T4, ADP375.
T4 chain: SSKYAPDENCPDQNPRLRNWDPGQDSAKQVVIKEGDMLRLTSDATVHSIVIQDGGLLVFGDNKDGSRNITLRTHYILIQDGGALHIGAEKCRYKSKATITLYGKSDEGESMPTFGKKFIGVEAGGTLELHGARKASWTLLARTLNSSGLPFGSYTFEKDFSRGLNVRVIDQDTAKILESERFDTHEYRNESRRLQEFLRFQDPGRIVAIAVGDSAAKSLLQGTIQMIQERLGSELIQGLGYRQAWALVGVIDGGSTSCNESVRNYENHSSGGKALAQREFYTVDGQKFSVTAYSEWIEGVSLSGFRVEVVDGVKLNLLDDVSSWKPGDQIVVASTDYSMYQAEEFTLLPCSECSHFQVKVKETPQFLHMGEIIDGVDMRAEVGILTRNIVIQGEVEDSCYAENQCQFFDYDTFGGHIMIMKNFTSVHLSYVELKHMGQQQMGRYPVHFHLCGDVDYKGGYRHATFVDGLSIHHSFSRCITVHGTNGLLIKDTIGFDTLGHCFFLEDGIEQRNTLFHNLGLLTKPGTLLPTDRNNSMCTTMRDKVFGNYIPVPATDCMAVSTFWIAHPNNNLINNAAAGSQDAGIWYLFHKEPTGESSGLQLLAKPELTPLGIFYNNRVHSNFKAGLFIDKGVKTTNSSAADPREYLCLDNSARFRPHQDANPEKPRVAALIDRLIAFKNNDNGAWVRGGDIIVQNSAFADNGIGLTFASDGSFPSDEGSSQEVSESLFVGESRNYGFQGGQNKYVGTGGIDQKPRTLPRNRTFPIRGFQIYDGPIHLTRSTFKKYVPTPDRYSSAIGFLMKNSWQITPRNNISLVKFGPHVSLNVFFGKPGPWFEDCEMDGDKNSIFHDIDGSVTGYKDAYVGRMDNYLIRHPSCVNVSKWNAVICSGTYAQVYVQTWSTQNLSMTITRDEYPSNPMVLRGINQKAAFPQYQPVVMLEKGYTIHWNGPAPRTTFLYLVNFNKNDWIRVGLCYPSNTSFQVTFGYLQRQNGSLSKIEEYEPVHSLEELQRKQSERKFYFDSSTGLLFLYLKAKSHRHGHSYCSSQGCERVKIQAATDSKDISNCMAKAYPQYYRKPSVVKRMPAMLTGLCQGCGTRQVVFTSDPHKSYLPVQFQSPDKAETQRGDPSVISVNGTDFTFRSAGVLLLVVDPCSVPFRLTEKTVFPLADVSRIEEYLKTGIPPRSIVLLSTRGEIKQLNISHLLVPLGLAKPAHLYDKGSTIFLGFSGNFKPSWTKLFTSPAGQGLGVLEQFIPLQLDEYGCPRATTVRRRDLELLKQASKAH

B1: ADP172 (protein)
chain: YLEQIKNGISGHYTEDHNIKNNNCISFSDYERSIKNFAISSHAENNYDNIINEYKKIKDINNNINILSSVHRKGRILYDSFLEINKLENDKKEKHEKEDEYEDNDESFLETEEYEDNEDEKYNKDEDDYAESFIETDEYEDNEDDKYNKDEDDYSESFIETDEYDDNEEEQYNKDEDDYTDSFIETDHYENNDDKNEEEEEYNDQDNDYGYNFLETDEYDDSEEYDYDDKEYGESFLEKEEGEEMKDEEMKDEEMKDVEMKDEEMKDEEMKYDEMKNEEMKYDEMKDEVMKDEEMKDEVMKDEEMKDEQMKYEEFKNEESKNEESKNEESKNEESKNEEFKNEESKNEEFKNEEFKNEDMSYDEYMGYKKKEEDESYNTFNGAKKNNAANSFLEKDLQGDSDDELHSTFYSKNVDKENYDDKNIFYGYSDNDDESFLETDSYEEYEDEDKDVEDEYEESFLQNDEKKMVFYDLYKPEENEAYYEKKQKKEEKEEKEEKEQSLNKQNDMEDQEDNEEYKFEEENKEDLLDVQQDEELPSEGKQKVKGKSFDNEHLNEIQNVADVHAFIQKDMKYLDDLIDEEQTIKDAVKKSAYKGNKKLGNNKKSQMILEEEPEENFEEDADEELNKLMEQEKNIVDKEIKNSKANKANKKLQFNNANKQNKMYMKNEYNNKAKNNKNNKFEQQNYDESYMDDDYEQNEEFNDNNQAEDMKETNELDKINDELLTDQGPNEDTLLENNNKIFDNKFVAHKKREKSISPHSYQKVSTKVQNKEDMENKEEKQLINDEAAMTAEELVELENTEDVNTPTMVETEEIDSDENGNKAS
modifications: bait human Fc-tagged dimer; N-glycosylation sequons mutated in Plasmodium baits
In the case of B1, the results for the binding score in the test with ADP334 and in the test with ADP389 were 13.1 and 7.86, respectively.

B2: ADP193 (protein)
chain: GEEKLTKFDPVMIKEGELFGEVSYDCEYSGFLEIENDDILYYCFFVGEDDHNGLLLRKFHMDDMVWGIPMEVLITRKKINLYILTVDYILSKLILIYSFDEKIRITVFNNYMEESVMSEKISINYEILYKANMISYITYFYKNKKSLCVCGMNRNENILCTFSFDYGLTMKDDHTIEFFLKKKIPLGHYKMQVTFKETEVYFNLYNDLNEANFYELKCVKKQDEYICDIMNKIRETQEYNYKRYTYPSSEHNKYYNDHHNKQPQGKQGQQGGAPLPNLGEEENNFIYKHIVRNKYFQMIVFQKDQKCYLAWSFNSLNINDEITKEISSVPCSNVASYYRQERLIVTLKKNQLGSRNHFFLIYEKLTEKGVGCEFGVGGSLYVTKTFMNNACDMDINNMNVATTNYDEINFALIIPLSFQLNYATCFIWEENVDNNEERSSLYYLEEYTNEKEDIKVYTFYFYKYILIYKNFKKSTCTFESKNNEKLYISFRGDTYYKEYNCNILLDSCDFFLHTQSKINIAYDDDVWQVSEELYDGFVMYNGAYVSLYDVLSRSNAHGLIYIDGKENNAAINLNNIKNNNNNNNNNNNNNNAANNNNIANNANSNNAFGEHEKVITIIIPYGIPSTRTIKIEFLNKQNNEEKRWAYLRLQKNEYIMKKVIGINSADIFDLSYKYYKYNQEKIKFILNDFSETTYLGFICQTKEEIKKSLCTISLVDHSHKNMAINNLFKTNNHILPFLYDQSPPRKIQPYNQIISEFRFVLFKNFHLFLQENKINYILLKCMCSSSSSYINTQKNIELSYLITNEQVSHDFIHTPGILIRPRTNIAHNDYQKNNKGNHKGNNKANNKANDKDSNNNANNNANKNGNNHNDNNNNNQNKDIDINSNYAIHNNNEKVKRTKKKINDAPYDKQDEELPSYDFNDLLHEKKNGASVFDFNFVLFLFICITFF
modifications: bait human Fc-tagged dimer; N-glycosylation sequons mutated in Plasmodium baits
As for B2, the binding score with ADP320 was 7.53; with ADP326 it was 9.3; in the test with ADP375, 8.14.
